The values below are quoted from earlier work in PMC8967867.

The target of the series is NCOA3 CID (Homo sapiens) (UniProt Q9Y6Q9).
Sequence of NCOA3 CID (Homo sapiens) (Q9Y6Q9 1023-1093): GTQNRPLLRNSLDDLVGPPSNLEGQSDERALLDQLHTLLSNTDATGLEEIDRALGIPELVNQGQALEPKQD

Sequence of CBP NCBD (Q92793 2058-2116): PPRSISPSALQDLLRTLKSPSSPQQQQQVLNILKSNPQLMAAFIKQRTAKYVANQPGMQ

In the case of CBP NCBD (from UniProt Q92793), the Kd (commonly the concentration at which binding is half-saturated) was 200 nM.
